From patent US20090324700A1, “METHODS AND COMPOSITIONS FOR THE INHIBITION OF CATHEPSINS” (priority 2003, published 2009)

Tests used:
[1] = target: T1, human cathepsin G (Homo sapiens, UniProt P08311); assay: Protease specificity of Spi2A: cathepsin G; assay type: biochemical; settings: protease 20 nM, Spi2A 200 nM, 1 h at 37° C; FIG. 6B
T1 construct: purchased Calbiochem or Athens Research and Technology
T1 sequence (P08311 21-244): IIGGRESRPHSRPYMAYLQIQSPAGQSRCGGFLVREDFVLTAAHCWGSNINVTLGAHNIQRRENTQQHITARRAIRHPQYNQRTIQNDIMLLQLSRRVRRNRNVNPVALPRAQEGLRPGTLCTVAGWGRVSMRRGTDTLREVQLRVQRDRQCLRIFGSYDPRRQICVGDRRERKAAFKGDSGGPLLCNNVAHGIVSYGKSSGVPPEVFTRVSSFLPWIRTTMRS
Protocol: (§1) Protease specificity of Spi2A. RelA^−/− MEFs were transduced with retrovirus encoding Spi2A with a C-terminal 3×FLAG epitope tag and Spi2A-3×FLAG purified using a method described previously (Cooley et al., 1998). Briefly, cells (3×10^9) were lysed and Spi2A-3×FLAG (75 μg) purified by batch Q-Fast Flow ion-exchange chromatography (Pharmacia Biotech) after elution at 160-220 mM NaCl followed by anti-FLAG antibody columns, performed according to manufacturer's instructions (Sigma-Aldrich). Spi2A-3×FLAG was dialysed into PBS and stored as aliquots at −80° C. until needed.
(§2) Proteases were purchases from the manufacturers (Calbiochem or Athens Research and Technology) except granzymes A and B which were purified as described (Hanna et al., 1993) and cathespin V and K, which were purified as described (Bromme et al., 1999; Linnevers et al., 1997). Proteases (20 nM) were incubated in the appropriate assay buffer with Spi2A at 200 nM (at least 10-fold excess of inhibitor to maintain pseudo-first order conditions) for 1 h at 37° C. Control samples included only the enzyme, without the inhibitor. At the end of 1 h protease activity was assayed. […] Substrate hydrolysis was measured in a fluorescence microtiter plate reader (Spectramax Gemini XS, Molecular Devices). Percentage inhibition was calculated from the residual enzyme activity compared to no Spi2A controls. […]

[2] = target: T2, human cathepsin L (Homo sapiens, UniProt P07711); assay: Protease specificity of Spi2A: cathepsin L; assay type: biochemical; settings: protease 20 nM, Spi2A 200 nM, 1 h at 37° C; FIG. 6B
T2 construct: purchased Calbiochem or Athens Research and Technology
T2 sequence (P07711 114-333): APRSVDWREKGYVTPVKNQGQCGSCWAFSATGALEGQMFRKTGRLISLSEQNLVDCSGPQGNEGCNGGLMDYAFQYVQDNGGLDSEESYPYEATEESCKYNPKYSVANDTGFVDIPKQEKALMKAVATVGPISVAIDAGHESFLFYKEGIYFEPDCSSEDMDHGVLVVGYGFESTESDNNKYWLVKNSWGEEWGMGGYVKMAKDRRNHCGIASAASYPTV
Protocol: as §1, §2

[3] = target: T3, caspase 3 (Homo sapiens, UniProt P42574); assay: Protease specificity of Spi2A: caspase 3; assay type: biochemical; settings: FIG. 6B
T3 construct: purchased Calbiochem or Athens Research and Technology
T3 sequence (P42574 29-175 limits assumed): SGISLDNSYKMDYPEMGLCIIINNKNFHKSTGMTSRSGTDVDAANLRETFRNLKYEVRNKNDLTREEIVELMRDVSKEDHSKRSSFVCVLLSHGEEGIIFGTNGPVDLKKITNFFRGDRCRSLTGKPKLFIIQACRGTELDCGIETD
T3 sequence (P42574 176-277 limits assumed): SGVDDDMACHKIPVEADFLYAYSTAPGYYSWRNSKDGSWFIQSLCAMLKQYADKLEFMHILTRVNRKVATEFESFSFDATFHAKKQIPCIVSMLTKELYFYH
Protocol: as §1, §2

[4] = target: T4, caspase 9 (Homo sapiens, UniProt P55211); assay: Protease specificity of Spi2A: caspase 9; assay type: biochemical; settings: FIG. 6B
T4 construct: purchased Calbiochem or Athens Research and Technology
T4 sequence (P55211 1-315 limits assumed): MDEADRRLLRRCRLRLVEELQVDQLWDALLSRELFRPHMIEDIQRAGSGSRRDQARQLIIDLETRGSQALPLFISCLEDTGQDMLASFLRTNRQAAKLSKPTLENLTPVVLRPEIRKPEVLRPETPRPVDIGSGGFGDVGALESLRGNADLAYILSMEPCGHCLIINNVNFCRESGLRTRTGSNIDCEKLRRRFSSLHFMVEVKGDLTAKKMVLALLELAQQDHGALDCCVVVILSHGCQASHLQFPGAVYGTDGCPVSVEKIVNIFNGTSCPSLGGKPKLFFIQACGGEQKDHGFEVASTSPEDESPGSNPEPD
T4 sequence (P55211 331-416 limits assumed): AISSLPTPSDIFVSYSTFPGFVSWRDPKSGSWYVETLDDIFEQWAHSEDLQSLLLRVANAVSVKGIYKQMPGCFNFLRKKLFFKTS
Protocol: as §1, §2

[5] = system: RelA^−/− MEFs; assay: Lysosome internal pH (acridine orange, flow cytometry), RelA^−/− MEFs; assay type: cell-based, mouse; settings: TNF-α 0.2 ng/ml, CHX 0.1 μg/ml; FIG. 8
Protocol: FIG. 8. Spi2A offers partial protection of lysosomal de-acidification in […]. RelA^−/− MEFs were transduced by retrovirus encoding GFP alone or Spi2A as indicated by the percentage AO-low cells after treatment with TNF-α (0.2 ng/ml) and CHX (0.1 μg/ml). The percentage of intact lysosomes was determined by staining with AO as has been described previously (Zhao et al., 2000). Briefly, cells were incubated with AO (5 μg/ml), washed and collected for flow cytometric assessment of uptake into intact lysosomes as indicated by red fluorescence (FL3 channel).
The inhibitory reaction was too fast to be measured using our conventional spectrophotometer. […] Lysosome internal pH was measured by staining with the weak basic, lysosomotropic dye—acridine orange (AO)— and flow cytometry (Zhao et al., 2000). Increase in lysosomal pH results a corresponding decrease in AO red fluorescence and the appearance of AO-low cells. It was shown that TNF-R1 cross-linking results in the appearance of AO-low cells in Rel A^−/− MEFs transduced with control retrovirus (GFP) (Supplementary FIG. 4). […] The appearance of AO-low cells can be interpreted as lysosomal rupture, and so it is possible that Spi2A in some way protects lysosomes from damage induced by TNF-α.

[6] = system: secondary anti-LCMV CD8 cells; settings: mouse, in vivo
[7] = system: Spi2A mRNA; settings: mouse, in vivo

B1: Spi2A: murine Spi2A polypeptide, SEQ ID NO:2; purified as C-terminal 3×FLAG protein or expressed from MIGR1 retrovirus in cells and bone-marrow chimeras (protein, listed as Mus musculus)
chain: MAGVSPAVFGCPDVTLGRNTAVREVQENVTSVDSLTLVSSNTDFAFSLYRKLVLKNPDENVVFSPFSICTALALLSLGAKSNTLKEILEGLKFNLTETPEPDIHQGFRYLLDLLSQPGNQVQISTGSALFIEKHLQILAEFKEKARALYQAEAFTADFQQPLKATKLINDYVSNHTQGKIKELISGLKESTLMVLVNYIYFKGKWKNPFDPNDTFKSEFYLDEKRSVIVSMMKTGYLTTPYFRDEELSCTVVELKYTGNASAMFILPDQGRMQQVEASLQPETLRKWKNSLKPRMIHELRLPKFSISTDYSLEHILPELGIREVFSTHADLSAITGTKDLRVSQVVHKAVLDVAEKGTEAAAATGMAGVGCCAVFDFLEIFFNRPFLMIISDTKAHIALFMAKVTNPERSTNFPNGEGASSQRLESKRLCFGDPLCLIGQ
modifications: C-terminal 3xFLAG tag
notes: purified as C-terminal 3×FLAG protein or expressed from MIGR1 retrovirus in cells and bone-marrow chimeras
Inhibition of protease by Spi2A (percentage inhibition) [1]: inhibited
Inhibition of protease by Spi2A (percentage inhibition) [2]: extended to all of the lysosomal, papain-like proteases that were examined
Inhibition of protease by Spi2A (percentage inhibition) [3]: did not extend to any of the caspases tested
Inhibition of protease by Spi2A (percentage inhibition) [4]: did not extend to any of the caspases tested
Appearance of AO-low cells (lysosomal de-acidification) [5]: less AO-low cells
Number of anti-LCMV CD8 cells per spleen GFP^− [6]: 45.94 ± 7.55 (n = 4) ×10^−5
Percentages and absolute numbers of secondary anti-LCMV CD8 cells (recall response) [6]: significantly increased
proportional change of anti-LCMV CD8 cells compared to the GFP control [6]: (417%)
Spi2A mRNA in GFP^+ CD8^+ spleen cells [7]: significant increase
